Common to all, as to assay: IEDB peptide-MHC binding, purified MHC/competitive/radioactivity; filed as Kd, often an IC50 or EC50 that approximates it; ≥ and ≤ were set here for values at or beyond the usual limits of such assays
Experiment [1] concerns the target HLA-A*68:01.
Experiment [2] concerns the target HLA-A*03:01.
The target in experiment [3] is HLA-A*31:01.
Experiment [4] deals with HLA-A*33:01.
For experiment [5], the target named is HLA-A*11:01.
The mark [6] stands for this setting: source organism: Vaccinia virus WR.
The mark [7] stands for this setting: source organism: Dengue virus 2 Peru/IQT2913/1996.
The mark [8] stands for this setting: source organism: Dengue virus 1 Brazil/97-11/1997.
Setting [9] is: source organism: Mammarenavirus whitewaterense.
The mark [10] stands for this setting: source organism: SARS coronavirus Tor2.
The mark [11] stands for this setting: source organism: Dengue virus 4 Philippines/H241/1956.
Where [12] appears, read: source organism: Dengue virus 3 Martinique/1243/1999.
Setting [13] is: source organism: Dengue virus 2 Jamaica/1409/1983.
[14] abbreviates: source organism: Mammarenavirus guanaritoense.

Where only a bound is given, the exact number is not on record here.

Turning to NFDYPFFRK, the Kd in experiment [1] (setting [6]) came to 393 nM; in experiment [2] (setting [6]), 9090 nM; in experiment [3] (setting [6]), 90.2 nM; in experiment [4] (setting [6]), 308 nM; in experiment [5] (setting [6]), 191 nM.
For PISELSRLR, in that order: 679 nM, no less than 78000 nM, 484 nM, 919 nM and 5400 nM.
For ALEYLSELK, in that order: 3480 nM, 988 nM, 8550 nM, no less than 77700 nM and 178 nM.
For AAVTLNRIK, in that order: 3160 nM, no less than 34800 nM, 9300 nM, no less than 27100 nM and 4760 nM.
For FLMSGRGIGK, the Kd is 4.97 nM in experiment [2] (setting [7]) and 75.2 nM in experiment [5] (setting [7]).
In the case of RICTREEFTR, the Kd in experiment [3] (setting [8]) is no less than 70000 nM.
For the sequence CFKEASFSK, the Kd worked out at 1230 nM in experiment [1] (setting [6]); 966 nM in experiment [2] (setting [6]); 13 nM in experiment [3] (setting [6]); 11.6 nM in experiment [4] (setting [6]); 1370 nM in experiment [5] (setting [6]).
For LSSIKSKSRR, in that order: 163 nM, no less than 32100 nM, 644 nM, 16500 nM and 2030 nM.
Turning to TSAYLISIFL, the Kd in experiment [4] (source organism: Lymphocytic choriomeningitis virus (strain WE)) is 2170 nM.
Turning to LLLPSTDVNK, the Kd was 2920 nM in experiment [1] (setting [6]); 41.1 nM in experiment [2] (setting [6]); 3020 nM in experiment [3] (setting [6]); no less than 70000 nM in experiment [4] (setting [6]); 37.8 nM in experiment [5] (setting [6]).
Consider SLLTNDTTWI, for which the Kd in experiment [1] (setting [9]) is no less than 70100 nM; in experiment [2] (setting [9]), no less than 70000 nM; in experiment [3] (setting [9]), 17000 nM; in experiment [4] (setting [9]), no less than 70000 nM; in experiment [5] (setting [9]), no less than 69700 nM.
For ALLRALRLTK, the Kd in experiment [1] (setting [10]) was 1790 nM; in experiment [2] (setting [10]) it was 3.17 nM; in experiment [3] (setting [10]), 233 nM; in experiment [4] (setting [10]), no less than 70000 nM; in experiment [5] (setting [10]), 24.5 nM.
As to LIMFEQYFIY, the dissociation constant (Kd) was 1720 nM in experiment [1] (setting [6]); 1030 nM in experiment [2] (setting [6]); 14000 nM in experiment [3] (setting [6]); 8190 nM in experiment [4] (setting [6]); 134 nM in experiment [5] (setting [6]).
For the sequence SIPPTAGILK, the Kd amounted to 216 nM in experiment [2] (setting [11]) and 16.5 nM in experiment [5] (setting [11]).
As for NIADAARHY, the Kd in experiment [1] (setting [6]) stood at 469 nM; in experiment [2] (setting [6]), 6720 nM; in experiment [3] (setting [6]), 5040 nM; in experiment [4] (setting [6]), 7730 nM; in experiment [5] (setting [6]), 11300 nM.
Turning to GTSTDVVYR, the Kd in experiment [1] (setting [10]) is 16.5 nM; in experiment [2] (setting [10]), 79.2 nM; in experiment [3] (setting [10]) it was 30.3 nM; in experiment [4] (setting [10]), 481 nM; in experiment [5] (setting [10]) it was 17.9 nM.
As for VTSLAIKNYY, the Kd in experiment [1] (setting [6]) turned out to be 112 nM; in experiment [2] (setting [6]), 206 nM; in experiment [3] (setting [6]), 281 nM; in experiment [4] (setting [6]) it was 420 nM; in experiment [5] (setting [6]) it was 21.7 nM.
KLTYQNKVVK: in experiment [2] (setting [12]), the Kd was found to be 66.1 nM.
As to SFNMLKRAR, the Kd is no less than 34200 nM in experiment [3] (setting [8]) and 10 nM in experiment [4] (setting [8]).
Regarding HAFDAPTLY, the Kd in experiment [1] (setting [6]) is 30.3 nM; in experiment [2] (setting [6]), 33.9 nM; in experiment [3] (setting [6]), no less than 48400 nM; in experiment [4] (setting [6]) it was no less than 77700 nM; in experiment [5] (setting [6]), 185 nM.
Take AAISDYDYY: the Kd is 4810 nM in experiment [1] (setting [10]); 698 nM in experiment [2] (setting [10]); 17500 nM in experiment [3] (setting [10]); no less than 77700 nM in experiment [4] (setting [10]); 1100 nM in experiment [5] (setting [10]).
As to TSEHGGRAYR, in experiment [3] (setting [12]), the Kd was 72.4 nM.
Regarding SSMVNGVVK, the Kd in experiment [5] (source organism: Dengue virus 1 Singapore/S275/1990) was 73.4 nM.
Take RMLNILNRRR: the Kd in experiment [3] (setting [13]) was found to be 1.6 nM.
For KMLLNRFTTR, in experiment [3] (setting [11]), the Kd turned out to be 3.77 nM.
As to FLALGFFLRK, the Kd in experiment [2] (setting [12]) is 29.1 nM.
Turning to FTVKLGGVFH, the Kd is 27.4 nM in experiment [1] (setting [14]), 14800 nM in experiment [2] (setting [14]), 695 nM in experiment [3] (setting [14]) and 12500 nM in experiment [4] (setting [14]).
In the case of EIWTKEGER, in experiment [4] (setting [13]), the Kd is 47.9 nM.
In the case of ILIKRRQQK, the Kd in experiment [2] (source organism: Homo sapiens) is 28.9 nM.
Turning to ISLGLILLK, the Kd in experiment [2] (setting [11]) was found to be 31.2 nM; in experiment [5] (setting [11]) it was 1.21 nM.
Consider DTSEVHWNYK, for which, in experiment [1] (setting [11]), the Kd was 6.73 nM.
VSILASSLLR: the Kd in experiment [1] (setting [12]) is 468 nM; in experiment [3] (setting [12]), 872 nM; in experiment [4] (setting [12]), 200 nM; in experiment [5] (setting [12]) it was 514 nM.
Regarding VLKIVRNMEK, the Kd in experiment [2] (setting [13]) came to 82.8 nM.
As to WQLMYFHRR, the equilibrium dissociation constant (Kd) in experiment [3] (setting [8]) came out at 4410 nM.
Turning to RTYSDPLALK, the figures for the Kd in experiment [1] (setting [12]), in experiment [2] (setting [12]) and in experiment [5] (setting [12]) were 29.3 nM, 3.61 nM and 36.1 nM, respectively.
Take RTLGRNKKPR: the Kd in experiment [3] (setting [12]) was 8.39 nM.

The term Kd denotes the equilibrium constant for the complex coming apart.

Source of the values: the Immune Epitope Database (IEDB).
